The test system of this data set is Escherichia coli TOP10. The experiment in a line: shrunken log2 fold change of peptide-encoding DNA abundance (4.5 h post-induction vs induction); higher = less antimicrobial activity (less host growth inhibition). The conditions noted are these: time post-induction: 4.5 h; library: site-saturation at positions 5, 18, 19, 20.
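Also: peptides expressed intracellularly from a pBAD plasmid library in pooled LB shake-flask culture, induced with 0.3% L-arabinose, DNA abundance read by NGS, three biological replicates, DESeq2 with apeglm shrinkage.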

As to RRIRYRPPRLPRPRPRPLPWPRP, the “shrunken log2 fold change” value was -0.132. For the sequence RRIRARPPRLPRPRPRPHVPPRP, the “shrunken log2 fold change” value was -0.242. Regarding RRIRDRPPRLPRPRPRPNKEPRP, the “shrunken log2 fold change” value stood at 0.0313.

RRIRKRPPRLPRPRPRPSRGPRP: the “shrunken log2 fold change” value stood at 0.741. For RRIRGRPPRLPRPRPRPYLKPRP, the “shrunken log2 fold change” value is -0.0688. Regarding RRIRERPPRLPRPRPRPVTSPRP, the “shrunken log2 fold change” value was -0.23. On to RRIRRRPPRLPRPRPRPEQTPRP, for which the “shrunken log2 fold change” value was -0.01. As for RRIRSRPPRLPRPRPRPKCQPRP, the “shrunken log2 fold change” value was found to be 0.607. For RRIRMRPPRLPRPRPRPGGPPRP, the “shrunken log2 fold change” value was 0.119.

Consider RRIRWRPPRLPRPRPRPRRIPRP, for which the “shrunken log2 fold change” value amounted to 0.109. For RRIRARPPRLPRPRPRPMVAPRP, the “shrunken log2 fold change” value stood at 0.676. Turning to RRIRDRPPRLPRPRPRPDWEPRP, the “shrunken log2 fold change” value was found to be 0.0165. In the case of RRIRQRPPRLPRPRPRPEQDPRP, the “shrunken log2 fold change” value amounted to 0.311. The same measure for RRIRQRPPRLPRPRPRPTRPPRP: 1.05; for RRIRTRPPRLPRPRPRPMQRPRP: -0.0122; for RRIRLRPPRLPRPRPRPNNWPRP: -0.275.

For RRIRNRPPRLPRPRPRPPFRPRP, the “shrunken log2 fold change” value amounted to 0.153. On to RRIRHRPPRLPRPRPRPRQKPRP, for which the “shrunken log2 fold change” value was -0.01. Regarding RRIRQRPPRLPRPRPRPVFAPRP, the “shrunken log2 fold change” value worked out at 0.164. As for RRIRCRPPRLPRPRPRPGRFPRP, the “shrunken log2 fold change” value was found to be 0.0435. Regarding RRIRKRPPRLPRPRPRPMMCPRP, the “shrunken log2 fold change” value stood at 0.0781. On to RRIRWRPPRLPRPRPRPNVKPRP, for which the “shrunken log2 fold change” value is -0.278.

For the sequence RRIRNRPPRLPRPRPRPNTVPRP, the “shrunken log2 fold change” value was -0.409. As to RRIRTRPPRLPRPRPRPRMHPRP, the “shrunken log2 fold change” value worked out at 0.0254.

Take RRIRMRPPRLPRPRPRPEGSPRP: the “shrunken log2 fold change” value was 3.63.

Consider RRIRIRPPRLPRPRPRPQKLPRP, for which the “shrunken log2 fold change” value was -0.277.

RRIRGRPPRLPRPRPRPFVWPRP: the “shrunken log2 fold change” value stood at 0.278. Regarding RRIRVRPPRLPRPRPRPCNLPRP, the “shrunken log2 fold change” value was -0.163.

As for RRIRFRPPRLPRPRPRPEYGPRP, the “shrunken log2 fold change” value is -0.621. Take RRIRDRPPRLPRPRPRPIDGPRP: the “shrunken log2 fold change” value worked out at 0.0392. The same measure for RRIRIRPPRLPRPRPRPPMQPRP: -0.193; for RRIRPRPPRLPRPRPRPRWCPRP: 0.171; for RRIRMRPPRLPRPRPRPFGVPRP: 0.0231.

For the sequence RRIRFRPPRLPRPRPRPQDMPRP, the “shrunken log2 fold change” value was found to be 0.028. In the case of RRIRRRPPRLPRPRPRPWIKPRP, the “shrunken log2 fold change” value stood at 0.0892. Regarding RRIRERPPRLPRPRPRPTDTPRP, the “shrunken log2 fold change” value is -0.415. Regarding RRIRMRPPRLPRPRPRPLGNPRP, the “shrunken log2 fold change” value was -0.0024. Regarding RRIRDRPPRLPRPRPRPAHYPRP, the “shrunken log2 fold change” value is 0.0963. Take RRIRNRPPRLPRPRPRPPGEPRP: the “shrunken log2 fold change” value came to 0.0757. For the sequence RRIRVRPPRLPRPRPRPCMRPRP, the “shrunken log2 fold change” value amounted to 0.108. For the sequence RRIRYRPPRLPRPRPRPNIAPRP, the “shrunken log2 fold change” value is -0.64. Turning to RRIRNRPPRLPRPRPRPFLLPRP, the “shrunken log2 fold change” value is -0.295. Turning to RRIRPRPPRLPRPRPRPWSRPRP, the “shrunken log2 fold change” value was 0.298. In the case of RRIRVRPPRLPRPRPRPFLYPRP, the “shrunken log2 fold change” value is -0.728. As to RRIRWRPPRLPRPRPRPIHMPRP, the “shrunken log2 fold change” value is -0.246. Regarding RRIRHRPPRLPRPRPRPSPQPRP, the “shrunken log2 fold change” value is -0.358. Regarding RRIRPRPPRLPRPRPRPGSQPRP, the “shrunken log2 fold change” value came to 0.127. For RRIRGRPPRLPRPRPRPYECPRP, the “shrunken log2 fold change” value is -0.075.

As for RRIRHRPPRLPRPRPRPIHIPRP, the “shrunken log2 fold change” value was -0.733. As to RRIRDRPPRLPRPRPRPHFEPRP, the “shrunken log2 fold change” value is 0.163. As for RRIRQRPPRLPRPRPRPPGTPRP, the figure is 0.617; as for RRIRERPPRLPRPRPRPCHNPRP, -0.0168. The same measure for RRIRCRPPRLPRPRPRPWEIPRP: 0.0501; for RRIRKRPPRLPRPRPRPDLWPRP: 0.123; for RRIRHRPPRLPRPRPRPSIRPRP: -0.345. Take RRIRLRPPRLPRPRPRPIQDPRP: the “shrunken log2 fold change” value was -0.105. On to RRIRWRPPRLPRPRPRPRQAPRP, for which the “shrunken log2 fold change” value came to 0.475. RRIRWRPPRLPRPRPRPIENPRP: the “shrunken log2 fold change” value came out at 0.0363. As to RRIRERPPRLPRPRPRPAAFPRP, the “shrunken log2 fold change” value is -0.0909.

In the case of RRIRERPPRLPRPRPRPDMAPRP, the “shrunken log2 fold change” value was -0.00146. As for RRIRQRPPRLPRPRPRPQCEPRP, the figure is -0.234; as for RRIRGRPPRLPRPRPRPSEWPRP, 0.393; as for RRIRGRPPRLPRPRPRPPCYPRP, 0.265. On to RRIRNRPPRLPRPRPRPSDRPRP, for which the “shrunken log2 fold change” value is -0.0382. Take RRIRYRPPRLPRPRPRPWWRPRP: the “shrunken log2 fold change” value is -0.0462.

With RRIRHRPPRLPRPRPRPRSAPRP, the “shrunken log2 fold change” value was 0.356. Take RRIRERPPRLPRPRPRPYHGPRP: the “shrunken log2 fold change” value is -0.47. Regarding RRIRPRPPRLPRPRPRPPYCPRP, the “shrunken log2 fold change” value was -0.12. As for RRIRIRPPRLPRPRPRPGPDPRP, the figure is -0.0181. With RRIRQRPPRLPRPRPRPEKDPRP, the “shrunken log2 fold change” value turned out to be 0.343.

RRIRVRPPRLPRPRPRPITPPRP: the “shrunken log2 fold change” value is 0.12. RRIRNRPPRLPRPRPRPLYHPRP: the “shrunken log2 fold change” value was -0.941.

As for RRIRARPPRLPRPRPRPENKPRP, the “shrunken log2 fold change” value amounted to 0.31. The same measure for RRIRHRPPRLPRPRPRPYCYPRP: -0.577; for RRIRARPPRLPRPRPRPYAPPRP: 0.162. For the sequence RRIRGRPPRLPRPRPRPNWPPRP, the “shrunken log2 fold change” value is 0.306. For RRIRYRPPRLPRPRPRPLSSPRP, the “shrunken log2 fold change” value is -0.214. As for RRIRARPPRLPRPRPRPGMYPRP, the figure is -0.111. The same measure for RRIRCRPPRLPRPRPRPGTEPRP: 0.078. On to RRIRARPPRLPRPRPRPRWVPRP, for which the “shrunken log2 fold change” value worked out at 0.267. For the sequence RRIRPRPPRLPRPRPRPYNQPRP, the “shrunken log2 fold change” value is -0.429.

On to RRIRNRPPRLPRPRPRPGSCPRP, for which the “shrunken log2 fold change” value was -0.247. Regarding RRIRKRPPRLPRPRPRPHKHPRP, the “shrunken log2 fold change” value is -0.119. Regarding RRIRSRPPRLPRPRPRPFRAPRP, the “shrunken log2 fold change” value is -0.0568.

RRIRYRPPRLPRPRPRPQCFPRP: the “shrunken log2 fold change” value is -0.00674. As for RRIRMRPPRLPRPRPRPKHHPRP, the “shrunken log2 fold change” value amounted to 0.148. Take RRIRSRPPRLPRPRPRPPRCPRP: the “shrunken log2 fold change” value came out at 0.218.

Regarding RRIRYRPPRLPRPRPRPDQLPRP, the “shrunken log2 fold change” value is -0.122.

Regarding RRIRERPPRLPRPRPRPWMGPRP, the “shrunken log2 fold change” value is 0.299. With RRIRFRPPRLPRPRPRPPKPPRP, the “shrunken log2 fold change” value was 0.47.

Take RRIRTRPPRLPRPRPRPSSWPRP: the “shrunken log2 fold change” value turned out to be 0.131.
